Among the data in US20180044427A1 (Janssen / Centocor, published 2018) are EC50 and IC50 values, retold here.

For one assay, the target named is T1, human FcγRI (NM_000566) (human, UniProt P12314 16-374).
T1 construct: Transiently expressed on Expi293F cells
Nature of the assay: flow cytometry on transiently transfected Expi293F cells. On the procedure:
(§1) Plasmids expressing cDNAs encoding human FcγRI (NM_000566) (SEQ ID NO: 59), FcγRIIA (NM_021642) (SEQ ID NO: 60), FcγRIIB (NM_004001) (SEQ ID NO: 61), and FcγRIIIA (NM_000569) (SEQ ID NO: 62) (Origene) were transiently transfected into Expi293F cells by ExpiFectamine293 transfection kit (Life Technologies). Flow cytometry assays were performed 48 h after transfection. […] Raji cells (ATCC: CCL-86) were also employed to test the binding of anti-OX40 antibody to FcγRIIB receptor.
(§2) 2×10⁵ cells per well were seeded in 96-well plate and blocked in BSA Stain Buffer (BD Biosciences, San Jose, USA) for 30 min at 4° C. Cells were incubated with test antibody on ice for 1.5 h at 4° C. After being washed twice with BSA stain buffer, the cells were incubated with R-PE labeled anti-human or anti-mouse IgG secondary antibody (Jackson Immunoresearch Laboratories) for 45 min at 4° C. The cells were washed twice in stain buffer and then resuspended in 150 μL of Stain Buffer containing 1:200 diluted DRAQ7 live/dead stain (Cell Signaling Technology, Danvers, USA). PE and DRAQ7 signals of the stained cells were detected by Miltenyi MACSQuant flow cytometer (Miltenyi Biotec, Auburn, USA) using B2 and B4 channel respectively. Live cells were gated on DRAQ7 exclusion and the geometric mean fluorescence signals were determined for at least 10,000 live events collected. FlowJo software (Tree Star) was used for analysis. Data was plotted as the logarithm of antibody concentration versus mean fluorescence signals. Nonlinear regression analysis was performed by GraphPad Prism 6 (GraphPad Software, Inc.) and EC₅₀ values were calculated.
(§3) The binding of engineered anti-OX40 SF2 antibodies to various FcγR receptors expressed on transiently-transfected Expi293F cells were assessed by flow cytometry as described in Example 3.

Assay [1] concerns the target T2, human FcγRIIA (NM_021642) (human, UniProt P12318 36-317).
T2 construct: Transiently expressed on Expi293F cells
T2 sequence: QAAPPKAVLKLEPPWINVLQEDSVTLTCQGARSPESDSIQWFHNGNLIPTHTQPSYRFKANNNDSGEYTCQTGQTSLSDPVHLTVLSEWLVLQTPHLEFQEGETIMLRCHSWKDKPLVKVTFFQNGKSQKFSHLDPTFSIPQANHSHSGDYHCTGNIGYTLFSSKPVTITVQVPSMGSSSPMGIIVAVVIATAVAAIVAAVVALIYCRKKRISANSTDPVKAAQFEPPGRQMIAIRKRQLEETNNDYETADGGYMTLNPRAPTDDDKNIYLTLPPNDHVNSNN
The description is as above. On the procedure:
as §1, §2, §3

In assay [2] the target is T3, human FcγRIIB (NM_004001) (human, UniProt P31994 43-310).
T3 construct: Transiently expressed on Expi293F cells
T3 sequence: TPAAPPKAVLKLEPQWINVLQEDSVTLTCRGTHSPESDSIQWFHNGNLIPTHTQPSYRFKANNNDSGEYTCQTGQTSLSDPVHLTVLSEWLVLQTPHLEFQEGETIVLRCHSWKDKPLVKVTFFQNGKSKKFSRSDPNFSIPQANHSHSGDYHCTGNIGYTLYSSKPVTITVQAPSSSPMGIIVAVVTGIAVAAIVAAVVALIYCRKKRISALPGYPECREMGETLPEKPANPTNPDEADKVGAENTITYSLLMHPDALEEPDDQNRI
The description is as above. On the procedure:
as §1, §2, §3

The target in assay [3] is T4, human FcγRIIIA (NM_000569) (human, UniProt P08637 17-254).
T4 construct: Transiently expressed on Expi293F cells
T4 sequence (P08637 17-254 limits assumed): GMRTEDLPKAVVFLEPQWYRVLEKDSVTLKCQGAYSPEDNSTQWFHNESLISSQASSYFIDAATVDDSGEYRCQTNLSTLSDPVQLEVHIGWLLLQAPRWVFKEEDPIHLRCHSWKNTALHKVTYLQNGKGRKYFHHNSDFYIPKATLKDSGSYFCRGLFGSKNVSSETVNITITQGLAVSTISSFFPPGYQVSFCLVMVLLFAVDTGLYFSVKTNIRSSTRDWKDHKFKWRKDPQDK
Described as above. On the procedure: as §1, §2, §3

The target in assay [4] is T5, recombinant human FcRn extracellular domain with a poly-histidine affinity tag (FcRn-His6) (human, UniProt P55899 24-297).
T5 construct: extracellular domain
T5 sequence (P55899 24-297, form in doubt): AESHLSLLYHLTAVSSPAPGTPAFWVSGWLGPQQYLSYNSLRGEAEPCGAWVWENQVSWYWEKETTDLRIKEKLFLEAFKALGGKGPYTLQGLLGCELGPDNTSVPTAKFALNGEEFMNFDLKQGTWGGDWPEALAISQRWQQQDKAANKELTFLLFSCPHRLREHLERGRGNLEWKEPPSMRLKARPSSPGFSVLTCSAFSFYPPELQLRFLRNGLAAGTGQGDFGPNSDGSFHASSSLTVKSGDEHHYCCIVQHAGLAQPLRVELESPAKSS
The experiment in a line: competitive binding assay on plate-captured FcRn-His6 at pH 6.0; competitor: biotinylated human IgG1 indicator antibody at 1 µg/mL. On the procedure:
A competitive binding assay was used to assess relative affinities of different antibody samples to a recombinant human FcRn extracellular domain with a poly-histidine affinity tag (FcRn-His6). Ninety-six-well copper-coated plates (Thermo Scientific) were used to capture FcRn-His6 at 5 μg/mL in PBS, after which plates were washed with 0.15M NaCl, 0.02% Tween 20, and then incubated with blocking reagent (0.05M MES [2-(N-morpholino) ethanesulfonic acid], 0.025% bovine serum albumin (BSA), 0.001% Tween-20, pH 6.0, 10% chemiBLOCKER (Millipore)). […] Plates were incubated at room temperature for 1 hour, washed three times as above, and then incubated with a 1:10,000 dilution of streptavidin-horseradish peroxidase (HRP) (Jackson ImmunoResearch Laboratories) at room temperature for 30 minutes to bind biotinylated antibody. Plates were washed five times as above, and bound streptavidin-HRP detected by adding TMB (3,3′,5,5′-tetramethylbenzidine) peroxidase substrate with stable stop (Fitzgerald Industries International) and incubating for 4 minutes. Color development was stopped by addition of 0.5 M HCl. Optical densities were determined with a SpectraMax Plus384 plate reader (Molecular Devices) at 450 nm wavelength.

In general, EC50 refers to the midpoint of the concentration-response curve. As usually defined, the IC50 is the concentration at which inhibition is half-maximal.

T1 sequence (P12314 16-374 limits assumed): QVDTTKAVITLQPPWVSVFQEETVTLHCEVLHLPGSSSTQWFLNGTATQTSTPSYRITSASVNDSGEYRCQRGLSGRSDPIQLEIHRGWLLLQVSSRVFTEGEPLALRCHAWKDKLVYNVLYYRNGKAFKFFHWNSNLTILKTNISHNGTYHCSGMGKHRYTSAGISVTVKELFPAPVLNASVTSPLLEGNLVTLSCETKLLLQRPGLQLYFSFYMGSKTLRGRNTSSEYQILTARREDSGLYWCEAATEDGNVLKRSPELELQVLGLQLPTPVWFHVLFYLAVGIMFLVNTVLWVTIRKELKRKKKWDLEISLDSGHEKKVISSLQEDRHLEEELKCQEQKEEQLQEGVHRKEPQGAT

B1: OX40SF2IgG1T437R (antibody)
heavy: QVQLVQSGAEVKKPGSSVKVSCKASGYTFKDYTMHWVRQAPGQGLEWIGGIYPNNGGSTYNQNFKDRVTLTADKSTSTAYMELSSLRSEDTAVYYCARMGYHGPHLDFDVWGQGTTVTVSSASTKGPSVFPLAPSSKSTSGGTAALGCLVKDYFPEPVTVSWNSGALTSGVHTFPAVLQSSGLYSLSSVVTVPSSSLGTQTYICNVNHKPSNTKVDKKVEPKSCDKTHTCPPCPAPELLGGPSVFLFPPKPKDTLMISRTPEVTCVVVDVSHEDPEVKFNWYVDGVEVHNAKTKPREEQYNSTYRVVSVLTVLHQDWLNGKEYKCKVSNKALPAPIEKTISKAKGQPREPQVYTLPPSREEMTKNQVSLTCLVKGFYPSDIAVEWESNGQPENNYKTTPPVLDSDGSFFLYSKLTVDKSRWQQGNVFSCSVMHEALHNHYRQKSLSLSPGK
VL: DIQMTQSPSSLSASVGDRVTITCKASQDVGAAVAWYQQKPGKAPKLLIYWASTRHTGVPSRFSGSGSGTDFTLTISSLQPEDFATYYCQQYINYPLTFGGGTKVEIK
notes: also called SF2 antibody with T437R
With B1, the EC50 with human FcγRI (NM_000566) was 0.24 µg/mL; in assay [1] it was 4.13 µg/mL; in assay [2], > 10 µg/mL; in assay [3], 1.14 µg/mL. In assay [4], the IC50 stood at 1.1 µg/mL.

B2: OX40SF2IgG1T437R/K248E (antibody)
heavy: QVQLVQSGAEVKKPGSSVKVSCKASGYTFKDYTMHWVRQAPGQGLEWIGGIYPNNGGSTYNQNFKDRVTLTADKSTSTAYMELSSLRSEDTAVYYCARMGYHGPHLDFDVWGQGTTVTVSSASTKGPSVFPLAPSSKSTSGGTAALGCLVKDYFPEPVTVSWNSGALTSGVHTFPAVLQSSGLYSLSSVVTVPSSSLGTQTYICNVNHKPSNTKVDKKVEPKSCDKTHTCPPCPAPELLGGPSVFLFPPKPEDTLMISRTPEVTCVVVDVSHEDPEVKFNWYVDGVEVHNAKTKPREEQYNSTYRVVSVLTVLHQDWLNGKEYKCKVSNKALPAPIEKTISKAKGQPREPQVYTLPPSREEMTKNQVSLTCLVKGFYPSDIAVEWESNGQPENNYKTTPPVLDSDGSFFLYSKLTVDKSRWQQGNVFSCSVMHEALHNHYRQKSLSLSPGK
VL: DIQMTQSPSSLSASVGDRVTITCKASQDVGAAVAWYQQKPGKAPKLLIYWASTRHTGVPSRFSGSGSGTDFTLTISSLQPEDFATYYCQQYINYPLTFGGGTKVEIK
B2: the concentration for a half-maximal effect (EC50) was 0.248 µg/mL with human FcγRI (NM_000566), 3.39 µg/mL in assay [1], > 10 µg/mL in assay [2] and 1.56 µg/mL in assay [3]. The IC50 in assay [4] was 1.6 µg/mL.

B3: OX40SF2IgG1 (antibody)
chain 1: not shown
chain 2: DIQMTQSPSSLSASVGDRVTITCKASQDVGAAVAWYQQKPGKAPKLLIYWASTRHTGVPSRFSGSGSGTDFTLTISSLQPEDFATYYCQQYINYPLTFGGGTKVEIKRTVAAPSVFIFPPSDEQLKSGTASVVCLLNNFYPREAKVQWKVDNALQSGNSQESVTEQDSKDSTYSLSSTLTLSKADYEKHKVYACEVTHQGLSSPVTKSFNRGEC
As to B3, the EC50 was 0.326 µg/mL in the assay with human FcγRI (NM_000566), 4.56 µg/mL in assay [1], > 10 µg/mL in assay [2] and 0.744 µg/mL in assay [3].
